US20230002480A1

Columns and labels:
Assay in all cases: cell-based or functional assay
[1] = biological target: HIV-1 Env of pseudovirus Q769.d22 (clade A) (HIV-1)
[2] = biological target: HIV-1 Env of pseudovirus HIV-16845-2.22 (clade C) (HIV-1)
[3] = biological target: HIV-1 Env of pseudovirus MS208.A1 (clade A) (HIV-1)
[4] = biological target: HIV-1 Env of pseudovirus CNE20 (clade BC) (HIV-1)
[5] = biological target: HIV-1 Env of pseudovirus REJO4541.67 (clade B) (HIV-1)
[6] = biological target: HIV-1 Env of pseudovirus Q259.d2.17 (clade A) (HIV-1)
[7] = biological target: HIV-1 Env of pseudovirus WITO4160.33 (clade B) (HIV-1)
[8] = biological target: HIV-1 Env of pseudovirus 1054_07_TC4_1499 (clade B (T/F)) (HIV-1)
[9] = biological target: HIV-1 Env of pseudovirus CNE53 (clade BC) (HIV-1)
[10] = biological target: HIV-1 Env of pseudovirus WEAU_d15_410_787 (clade B (T/F)) (HIV-1)
[11] = biological target: HIV-1 Env of pseudovirus Du422.1 (clade C) (HIV-1)
[12] = biological target: HIV-1 Env of pseudovirus 62357_14_D3_4589 (clade B (T/F)) (HIV-1)
[13] = biological target: HIV-1 Env of pseudovirus 249M B10 (clade C (T/F)) (HIV-1)
[14] = biological target: HIV-1 Env of pseudovirus ZM247v1(Rev-) (clade C (T/F)) (HIV-1)
[15] = biological target: HIV-1 Env of pseudovirus Ce1176_A3 (clade C (T/F)) (HIV-1)
[16] = biological target: HIV-1 Env of pseudovirus THRO4156.18 (clade B) (HIV-1)
[17] = biological target: HIV-1 Env pseudovirus 191084 B7-19 (HIV-1)
[18] = biological target: HIV-1 Env pseudovirus P0402_c2_11 (HIV-1)
[19] = biological target: HIV-1 Env pseudovirus CNE8 (HIV-1)
[20] = biological target: HIV-1 Env pseudovirus 3016.v5.c45 (HIV-1)
[21] = biological target: HIV-1 Env pseudovirus 0260.v5.c36 (HIV-1)
[22] = biological target: HIV-1 Env pseudovirus BJOX015000.11.5 (HIV-1)
[23] = biological target: HIV-1 Env pseudovirus 191955_A11 (HIV-1)
[24] = biological target: HIV-1 Env pseudovirus 6480.v4.c25 (HIV-1)
[25] = biological target: HIV-1 Env pseudovirus T257-31 (HIV-1)
[26] = biological target: HIV-1 Env pseudovirus 89-F1_2_25 (HIV-1)
[27] = biological target: HIV-1 Env pseudovirus 235-47 (HIV-1)
[28] = biological target: HIV-1 Env pseudovirus C3347.c11 (HIV-1)
[29] = biological target: HIV-1 Env of pseudovirus BJOX015000.11.5 (clade CRF01_AE (T/F)) (HIV-1)
[30] = biological target: HIV-1 Env of pseudovirus P0402_c2_11 (clade G) (HIV-1)
[31] = biological target: HIV-1 Env of pseudovirus R2184.c04 (clade CRF01_AE) (HIV-1)
[32] = biological target: HIV-1 Env of pseudovirus CNE5 (clade CRF01_AE) (HIV-1)

N49P11 (antibody)
IC50 [1]: 0.048 µg/mL
IC80 [1]: 0.308 µg/mL
MPI [1]: 100
IC50 [2]: 1.72 µg/mL
IC80 [2]: 8.15 µg/mL
MPI [2]: 100
IC50 [3]: 0.259 µg/mL
IC80 [3]: 1.94 µg/mL
MPI [3]: 100
IC50 [4]: 5.19 µg/mL
IC80 [4]: 22.6 µg/mL
MPI [4]: 100
IC50 [5]: 10.8 µg/mL
IC80 [5]: 27.1 µg/mL
MPI [5]: 100
IC50 [6]: 8.42 µg/mL
IC80 [6]: 21.4 µg/mL
MPI [6]: 100
IC50 [7]: 4.86 µg/mL
IC80 [7]: 13.2 µg/mL
MPI [7]: 100
IC50 [8]: 2.92 µg/mL
IC80 [8]: 13.1 µg/mL
MPI [8]: 100
IC50 [9]: 0.43 µg/mL
IC80 [9]: 2.88 µg/mL
MPI [9]: 100
IC50 [10]: 1.7 µg/mL
IC80 [10]: 6.02 µg/mL
MPI [10]: 100
IC50 [11]: 8.81 µg/mL
IC80 [11]: 21.2 µg/mL
MPI [11]: 100
IC50 [12]: 0.599 µg/mL
IC80 [12]: 3.56 µg/mL
MPI [12]: 100
IC50 [13]: 3.54 µg/mL
IC80 [13]: 12.9 µg/mL
MPI [13]: 100
IC50 [14]: 7.48 µg/mL
IC80 [14]: 21.5 µg/mL
MPI [14]: 100
IC50 [15]: 0.946 µg/mL
IC80 [15]: 6.05 µg/mL
MPI [15]: 100
IC50 [16]: 1.84 µg/mL
IC80 [16]: 10.4 µg/mL
MPI [16]: 100

N49P18.1 (antibody)
IC50 [1]: 4.92 µg/mL
IC80 [1]: 18.3 µg/mL
MPI [1]: 97
IC50 [2]: > 50 µg/mL
IC80 [2]: > 50 µg/mL
MPI [2]: 23
IC50 [3]: 8.31 µg/mL
IC80 [3]: 33.3 µg/mL
MPI [3]: 88
IC50 [4]: 1.33 µg/mL
IC80 [4]: 6.36 µg/mL
MPI [4]: 100
IC50 [5]: 4.08 µg/mL
IC80 [5]: 30.1 µg/mL
MPI [5]: 89
IC50 [6]: > 50 µg/mL
IC80 [6]: > 50 µg/mL
MPI [6]: 37
IC50 [7]: 11 µg/mL
IC80 [7]: 37.6 µg/mL
MPI [7]: 87
IC50 [8]: > 50 µg/mL
IC80 [8]: > 50 µg/mL
MPI [8]: 0
IC50 [9]: 4.08 µg/mL
IC80 [9]: 21.8 µg/mL
MPI [9]: 97
IC50 [10]: 4.27 µg/mL
IC80 [10]: 15.5 µg/mL
MPI [10]: 98
IC50 [11]: 21.5 µg/mL
IC80 [11]: > 50 µg/mL
MPI [11]: 75
IC50 [12]: 10.4 µg/mL
IC80 [12]: 48 µg/mL
MPI [12]: 82
IC50 [13]: 5.71 µg/mL
IC80 [13]: 23.1 µg/mL
MPI [13]: 94
IC50 [14]: 10.9 µg/mL
IC80 [14]: > 50 µg/mL
MPI [14]: 79
IC50 [15]: 32.5 µg/mL
IC80 [15]: > 50 µg/mL
MPI [15]: 61
IC50 [16]: > 50 µg/mL
IC80 [16]: > 50 µg/mL
MPI [16]: 19

N49P19 (antibody)
IC50 [17]: 0.357 µg/mL
IC80 [17]: 1.34 µg/mL
MPI [17]: 100
IC50 [18]: 0.448 µg/mL
IC80 [18]: 2.63 µg/mL
MPI [18]: 100
IC50 [19]: 0.772 µg/mL
IC80 [19]: 4.84 µg/mL
MPI [19]: 97
IC50 [20]: > 50 µg/mL
IC80 [20]: > 50 µg/mL
MPI [20]: 9
IC50 [21]: 1.25 µg/mL
IC80 [21]: 8.52 µg/mL
MPI [21]: 99
IC50 [22]: 0.756 µg/mL
IC80 [22]: 3.17 µg/mL
MPI [22]: 99
IC50 [23]: > 50 µg/mL
IC80 [23]: > 50 µg/mL
MPI [23]: 16
IC50 [24]: 3.04 µg/mL
IC80 [24]: 28.2 µg/mL
MPI [24]: 87
IC50 [25]: 0.661 µg/mL
IC80 [25]: 3 µg/mL
MPI [25]: 100
IC50 [26]: > 50 µg/mL
IC80 [26]: > 50 µg/mL
MPI [26]: 7
IC50 [27]: 0.44 µg/mL
IC80 [27]: 3.23 µg/mL
MPI [27]: 89
IC50 [28]: 3.94 µg/mL
IC80 [28]: 25.7 µg/mL
MPI [28]: 87

PG9 (antibody)
IC50, titer in TZM.bl cells [29]: 0.322 µg/mL
IC80, titer in TZM.bl cells [29]: 1.49 µg/mL
IC50, titer in TZM.bl cells [30]: 0.296 µg/mL
IC80, titer in TZM.bl cells [30]: 2.37 µg/mL
IC50, titer in TZM.bl cells [31]: 0.255 µg/mL
IC80, titer in TZM.bl cells [31]: 1.24 µg/mL
IC50, titer in TZM.bl cells [32]: 0.018 µg/mL
IC80, titer in TZM.bl cells [32]: 0.051 µg/mL

PG16 (antibody)
IC50, titer in TZM.bl cells [29]: 3.13 µg/mL
IC80, titer in TZM.bl cells [29]: > 50 µg/mL
IC50, titer in TZM.bl cells [30]: 0.025 µg/mL
IC80, titer in TZM.bl cells [30]: 0.411 µg/mL
IC50, titer in TZM.bl cells [31]: 0.67 µg/mL
IC80, titer in TZM.bl cells [31]: > 50 µg/mL
IC50, titer in TZM.bl cells [32]: 0.008 µg/mL
IC80, titer in TZM.bl cells [32]: 0.033 µg/mL
